Experimental findings from patent EP4714976A1 are described below.

Residue numbers refer to the chain shown, from its start.

First the molecules themselves.
B1: 3B4 scFv-Fc (Fc fusion)
chain: EVQLQQSGADLVKPGASVKMSCKASGYTFSYYNMHWVRRTPGQGLEWIGLIYPDNGDTSYNQKFKGKATLTADTSSSTAYMQLSSLTSEDSAVYYCARGGLDYWGQGTTLTVSSGGGGSGGGGSGGGGSDIQMIQSPASMSASVGETVTITCGASENIYGALNWYQRKQGKSPQLLIYGATNLADGMSSRFSGSGSGRQYSLKISSLHPDDVATYYCQNVLSTPYTFGGGTKLEMKESKYGPPCPPCPAPEAAGGPSVFLFPPKPKDTLMISRTPEVTCVVVDVSQEDPEVQFNWYVDGVEVHNAKTKPREEQFNSTYRVVSVLTVLHQDWLNGKEYKCKVSNKGLPSSIEKTISKAKGQPREPQVYTLPPSQEEMTKNQVSLTCLVKGFYPSDIAVEWESNGQPENNYKTTPPVLDSDGSFFLYSKLTVDKSRWQEGNVFSCSVMHEALHNHYTQKSLSLSLG
B2: 3B7 scFv-Fc (Fc fusion)
chain: B1 chain with D10E, S30R, R38K, L101F, I134T, M140L, M235L
B3: 1B8 scFv-Fc (Fc fusion)
chain: QIQLQQSGAELVKPGASVKMSCKASGYTFASYNLHWVKQTPGQGLEWIGLIYPENGDTSYNQKFKGKATLTADTSSTTAYIQLSSLTSEDSAVYFCARGGFDYWGQGTSLTVSSGGGGSGGGGSGGGGSDIKMTQSPASLSASVGETVTITCGASENIYGALNWYQRKQGKSPQLLIYGATNLADGMSSRFSGSGSGRQYSLKISSLHPDDVATYYCQNVLSTPYTFGGGTKLEIKESKYGPPCPPCPAPEAAGGPSVFLFPPKPKDTLMISRTPEVTCVVVDVSQEDPEVQFNWYVDGVEVHNAKTKPREEQFNSTYRVVSVLTVLHQDWLNGKEYKCKVSNKGLPSSIEKTISKAKGQPREPQVYTLPPSQEEMTKNQVSLTCLVKGFYPSDIAVEWESNGQPENNYKTTPPVLDSDGSFFLYSKLTVDKSRWQEGNVFSCSVMHEALHNHYTQKSLSLSLG
B4: 1D7 scFv-Fc (Fc fusion)
chain: QIQLQQSGAELVKPGASVKMSCKASGYTFRYYNMHWVKRTPGQGLEWIGLIYPDNGDTSYNQKFKGKATLTADTSSSTAYMQLSSLTSEDSAVYYCARGGLDYWGQGTSLTVSSGGGGSGGGGSGGGGSDIQMTQSPSSMSASLGDRITITCQATQDIVKNLNWYQQKPGKPPSFLIYYATELAEGVPSRFSGSGSGSDYSLTISNLESEDFADYYCLQFYEFPLTFGAGTKLELKESKYGPPCPPCPAPEAAGGPSVFLFPPKPKDTLMISRTPEVTCVVVDVSQEDPEVQFNWYVDGVEVHNAKTKPREEQFNSTYRVVSVLTVLHQDWLNGKEYKCKVSNKGLPSSIEKTISKAKGQPREPQVYTLPPSQEEMTKNQVSLTCLVKGFYPSDIAVEWESNGQPENNYKTTPPVLDSDGSFFLYSKLTVDKSRWQEGNVFSCSVMHEALHNHYTQKSLSLSLG
B5: 2B2 scFv-Fc (Fc fusion)
chain: QLQLQQSGAELVKPGASVKMSCKASGYTFASYNLHWVKQTPGQGLEWIGLIYPENGDTSYNQKFKDKATLTADKSSTTAYIQLSSLASEDSAVYFCARGGFDYWGQGTTLTVSSGGGGSGGGGSGGGGSDIVMTQSQKFMSTSVGDRVSVTCKASQNVGTNVAWYQQKPGQSPKALIYSASYRYSGVPDRFTGSGSGTDYTLTISSVQAEDLALYYCQQHYSTPYTFGGGTKLELKESKYGPPCPPCPAPEAAGGPSVFLFPPKPKDTLMISRTPEVTCVVVDVSQEDPEVQFNWYVDGVEVHNAKTKPREEQFNSTYRVVSVLTVLHQDWLNGKEYKCKVSNKGLPSSIEKTISKAKGQPREPQVYTLPPSQEEMTKNQVSLTCLVKGFYPSDIAVEWESNGQPENNYKTTPPVLDSDGSFFLYSKLTVDKSRWQEGNVFSCSVMHEALHNHYTQKSLSLSLG
B6: 3F11 scFv-Fc (Fc fusion)
chain: QVQLQQSGAELVKPGASVKMSCKASGYTFAPYNIHWVRQTPGQGLEWIGLIYPDNGDTSYNQKFKAKATLTADKSSSTAYMQLSSLTSEDSAVYYCARGGFDYWGQGTSLTVSSGGGGSGGGGSGGGGSDIVMTQSQKFMSTSVGDRVSVTCKASQNVGTNVAWYQQKPGQSPKALIYSASYRYSGVPDRFTGSGSGTDFTLTISNVQSEDLAEYFCQQHYSTPFTFGSGTKLEIKESKYGPPCPPCPAPEAAGGPSVFLFPPKPKDTLMISRTPEVTCVVVDVSQEDPEVQFNWYVDGVEVHNAKTKPREEQFNSTYRVVSVLTVLHQDWLNGKEYKCKVSNKGLPSSIEKTISKAKGQPREPQVYTLPPSQEEMTKNQVSLTCLVKGFYPSDIAVEWESNGQPENNYKTTPPVLDSDGSFFLYSKLTVDKSRWQEGNVFSCSVMHEALHNHYTQKSLSLSLG
B7: 3A3 scFv-Fc (Fc fusion)
chain: QVQLQQSGAELVKPGASVKMSCKASGYTFTTYNIHWVRQTPGQGLEWIGLIYPDNGDTSYNQKFKAKATLTADKSSSTAYMHLSSLTSEDSAVYYCARGGFDYWGQGTTLTVSSGGGGSGGGGSGGGGSDIVMTQSHKFMSTSVGDRVSITCKASQDVNTDVSWYQQKPGQSPKLLIYSASYRYTGVPTRFTGSGSGTDFTFTISGVQAEDLADYYCQQHYNTPYTFGGGTRLEIKESKYGPPCPPCPAPEAAGGPSVFLFPPKPKDTLMISRTPEVTCVVVDVSQEDPEVQFNWYVDGVEVHNAKTKPREEQFNSTYRVVSVLTVLHQDWLNGKEYKCKVSNKGLPSSIEKTISKAKGQPREPQVYTLPPSQEEMTKNQVSLTCLVKGFYPSDIAVEWESNGQPENNYKTTPPVLDSDGSFFLYSKLTVDKSRWQEGNVFSCSVMHEALHNHYTQKSLSLSLG
B8: 1C10 scFv-Fc (Fc fusion)
chain: QVQLQQSGAELVKPGASVKMSCKASGYTFRYYNMHWVKRTPGQGLEWIGLIYPDNGDTSYNQKFKGKATLTADTSSSTAYMQLSSLTSEDSAVYYCARGGLDYWGQGTSLTVSSGGGGSGGGGSGGGGSDIVMTQSPASLSASVGETVTITCRASGNIHNYLAWYQQKQGKSPQLLVYNAKTLADGVPSRFSGSGSGTQYSLKINSLQPEDFGSYYCQHFWSTPYTFGGGTKLEMKESKYGPPCPPCPAPEAAGGPSVFLFPPKPKDTLMISRTPEVTCVVVDVSQEDPEVQFNWYVDGVEVHNAKTKPREEQFNSTYRVVSVLTVLHQDWLNGKEYKCKVSNKGLPSSIEKTISKAKGQPREPQVYTLPPSQEEMTKNQVSLTCLVKGFYPSDIAVEWESNGQPENNYKTTPPVLDSDGSFFLYSKLTVDKSRWQEGNVFSCSVMHEALHNHYTQKSLSLSLG
B9: 3A12 scFv displayed on phage (scFv)
scFv: EVQLQQSGAELVKPGASVKMSCKASGYTFSFYNVHWVRQTPGQGLEWIGLIYPDNGDTSYNQKFKAKATLTADKSSSAAYMQLSSLTSEDSAVYYCARGGFDYWGQGTSLTVSSGGGGSGGGGSGGGGSDIVMTQSHKFMSTSVGDRVNITCKASQDVSTAVAWYQQKPGQSPKLLIYSASYRYSGVPDRFTGSGSGTDFTFTISSVQAEDLAVYYCQQHYSTPYTFGGGTKLEMK
B10: 3D6 scFv displayed on phage (scFv)
scFv: QVQLQQSGAELVKPGASVKMSCKASGYTFRYYNMHWVKRTPGQGLEWIGLIYPDNGDTSYNQKFKGKATLTADTSSSTAYMQLSSLTSEDSAVYYCARGGLDYWGQGTSLTVSSGGGGSGGGGSGGGGSDIQMTQSPASLSVSVGETVTITCRASENIYSNLAWYQQKQGKSPQLLVYNAKTLADGVPSRFSGSGSGTQYSLKINSLQPEDFGSYYCQHFWSTPFTFGSGTKLELK
B11: 1C10 scFv displayed on phage (scFv)
scFv: B10 scFv with Q132V, V142A, E156G, Y159H, S160N, N161Y, F225Y, S229G, L235M
B12: 3H9 scFv displayed on phage (scFv)
scFv: EIQLQQSGAELVKPGASVKMSCKASGYTFSFYNMHWVKRTPGQGLEWIGLIYPDNGDTSYNQKFKGKATLTADTSSSTAYMQLSSLTSEDSAVYYCARGGLDYWGQGTTLTVSSGGGGSGGGGSGGGGSDIVLTQSPASLSVSVGETVTITCRASENIYSNLAWYQQKQGKSPQLLVYAATNLADGVPSRFSGSGSGTQYSLKINSLQSEDFGSYYCQHFWGTPYTFGGGTKLELK

The term Kd denotes the concentration at which binding is half-saturated. For orientation: koff means the first-order rate constant of dissociation. What is called kon is the rate constant with which the complex forms.

Chain of FGFR1 (acro) (P11362 22-376): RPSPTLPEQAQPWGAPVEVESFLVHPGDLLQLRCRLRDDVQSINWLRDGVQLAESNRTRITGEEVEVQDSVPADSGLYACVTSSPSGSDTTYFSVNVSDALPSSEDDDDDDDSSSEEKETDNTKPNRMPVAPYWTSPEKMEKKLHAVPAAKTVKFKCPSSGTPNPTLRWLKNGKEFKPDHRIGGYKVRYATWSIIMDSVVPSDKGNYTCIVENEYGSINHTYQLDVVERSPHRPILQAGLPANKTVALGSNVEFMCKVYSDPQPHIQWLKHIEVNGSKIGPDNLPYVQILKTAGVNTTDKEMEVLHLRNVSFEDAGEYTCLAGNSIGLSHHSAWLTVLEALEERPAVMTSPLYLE
Chain of extracellular domain of FGFR2c protein (Example 1) (P21802 22-377): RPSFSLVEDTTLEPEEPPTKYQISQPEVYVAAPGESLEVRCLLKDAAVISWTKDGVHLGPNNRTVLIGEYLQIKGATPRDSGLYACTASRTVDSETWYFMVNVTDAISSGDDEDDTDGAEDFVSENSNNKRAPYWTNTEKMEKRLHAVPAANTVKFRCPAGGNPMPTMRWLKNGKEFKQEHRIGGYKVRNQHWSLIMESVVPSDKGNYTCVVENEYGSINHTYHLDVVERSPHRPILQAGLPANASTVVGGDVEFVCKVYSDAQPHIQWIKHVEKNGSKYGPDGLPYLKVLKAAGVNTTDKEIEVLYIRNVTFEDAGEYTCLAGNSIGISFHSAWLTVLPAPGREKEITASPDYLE

The first assay has as its target FGFR1 (acro) (UniProt P11362). Kind of assay: ELISA, antibody 10 µg/mL. In general terms: ELISA stands for enzyme-linked immunosorbent assay.
Consider B1, for which the OD (450 nm) value was determined as 0.458.
The molecule B2 had an OD (450 nm) value of 0.083.
B3: the OD (450 nm) value amounted to 0.092.
Molecule B4 yielded an OD (450 nm) value of 0.074.
Take B5: the OD (450 nm) value was 0.109.
Still for that read-out and setting: under B6 stands 0.1.
The same measure, in the same setting: under B7 stands 0.097; under B8, 0.626.

Another assay deals with recombinant mouse FGFR2b (mouse) (UniProt P21803). Nature of the assay: BLI, antibody on AHC2 sensor.
Chain of recombinant mouse FGFR2b (mouse) (P21803 22-377): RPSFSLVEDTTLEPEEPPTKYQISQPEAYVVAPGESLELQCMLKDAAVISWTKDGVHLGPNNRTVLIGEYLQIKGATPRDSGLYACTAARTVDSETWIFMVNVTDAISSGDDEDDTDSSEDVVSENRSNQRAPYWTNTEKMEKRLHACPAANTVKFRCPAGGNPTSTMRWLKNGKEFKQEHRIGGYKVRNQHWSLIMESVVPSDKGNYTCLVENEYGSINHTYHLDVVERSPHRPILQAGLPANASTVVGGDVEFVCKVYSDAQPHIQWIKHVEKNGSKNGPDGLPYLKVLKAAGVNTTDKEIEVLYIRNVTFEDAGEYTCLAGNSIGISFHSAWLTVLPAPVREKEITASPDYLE
B1: the dissociation constant Kd is 27.3 nM, the dissociation rate constant (koff) came out at 0.0015 s⁻¹ and the association rate constant (kon) was 54900 M⁻¹ s⁻¹.
Take B2: the Kd amounted to 33.9 nM, the off-rate constant (koff) came to 0.00172 s⁻¹ and the association rate constant (kon) stood at 50700 M⁻¹ s⁻¹.
B3: the equilibrium dissociation constant (Kd) came out at 74.9 nM, the off-rate constant (koff) was 0.0048 s⁻¹ and the kon came to 64000 M⁻¹ s⁻¹.
Taken in the same sequence, the figures for B4 were 27.6 nM, 0.00117 s⁻¹ and 42500 M⁻¹ s⁻¹.
Taken in the same sequence, the figures for B5 were 53.5 nM, 0.00235 s⁻¹ and 43900 M⁻¹ s⁻¹.
Regarding B6, the dissociation constant Kd was found to be 26 nM, the dissociation rate constant (koff) was determined as 0.0015 s⁻¹ and the kon turned out to be 57800 M⁻¹ s⁻¹.
Regarding B7, the Kd was determined as 39.6 nM, the koff came out at 0.00122 s⁻¹ and the kon worked out at 30800 M⁻¹ s⁻¹.
Consider B8, for which the dissociation constant (Kd) was found to be 75.6 nM, the koff stood at 0.00216 s⁻¹ and the kon is 28600 M⁻¹ s⁻¹.

For a further assay the target is unchanged. Kind of assay: ELISA, antibody 1ug/mL.
Turning to B1, the OD (450 nm) value worked out at 2.88.
Consider B2, for which the OD (450 nm) value is 2.97.
The same measure, in the same setting: under B3 stands 2.01; under B4, 3.04.
Same read-out and setting: under B5 stands 3.09.
For the molecule B6, the OD (450 nm) value amounted to 2.92.
On the same count and under the same terms, under B7 stands 2.63.
On to B8, for which the OD (450 nm) value was determined as 2.94.

For the next assay, the target named is extracellular domain of the FGFR2b protein (NP_075259.4) (UniProt P21802). Nature of the assay: phage ELISA.
Chain of extracellular domain of the FGFR2b protein (NP_075259.4) (P21802 other isoform, or with tags, fused parts or gaps): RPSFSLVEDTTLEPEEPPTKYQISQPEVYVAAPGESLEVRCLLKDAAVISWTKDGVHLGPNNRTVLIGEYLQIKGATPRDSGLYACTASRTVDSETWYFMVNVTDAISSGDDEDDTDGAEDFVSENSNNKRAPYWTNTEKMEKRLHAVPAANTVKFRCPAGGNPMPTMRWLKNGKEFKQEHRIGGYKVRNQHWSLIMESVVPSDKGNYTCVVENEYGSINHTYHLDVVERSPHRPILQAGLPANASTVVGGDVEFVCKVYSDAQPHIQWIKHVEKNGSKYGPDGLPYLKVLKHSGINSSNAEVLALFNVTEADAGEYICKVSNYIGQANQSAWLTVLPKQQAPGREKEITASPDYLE
On to B9, for which the OD (450 nm) value was 2.41.
Same read-out and setting: under B10 stands 1.92; under B11, 2.55; under B12, 2.22.

The next assay has as its target extracellular domain of FGFR2c protein (Example 1) (UniProt P21802). Nature of the assay: phage ELISA.
B9 yielded an OD (450 nm) value of 0.1.
With B10, the OD (450 nm) value was determined as 0.037.
On the same count and under the same terms, under B11 stands 0.068; under B12, 0.073.
